Results from patent publication US20020147326A1, “Hexameric fusion proteins and uses therefor” (SmithKline Beecham Corporation, priority 1996, published 2002).

Columns and labels:
CD28-Ig = target: T1, CD28-Ig (Homo sapiens, UniProt P10747); assay: Isothermal titration calorimetry, binding to CD28-Ig in solution
T1 construct: native leader and extracellular domain peptide of CD28 and CD80 were grafted onto a human IgG1 heavy chain Fc region; human IgG1 Fc (hinge/CH2/CH3); made in house; host or cells: CHO cells
Text: The solution binding properties of the hexameric and standard Ig fusion proteins of CD80 and CD86 were compared using isothermal titration calorimetry, essentially as described previously for other proteins [K. Johanson et. al., J. Biol. Chem, 270: 9459-9471 (1995), and references therein].
This lower affinity for CD28 than for CTLA4 is in agreement with other reports [P. S. Linsley et. al., Immunity 1: 793-801 (1994)].

[1] = system: murine T-cell hybridoma cell lines expressing human CD28 (PCD28.1.s2.1, DCL27CD28wt.s2); assay: IL-2 production by CD28 T-cell hybridomas (CTLL-2 bioassay); assay type: cell-based
Text: The CD80- and CD86-Igαtp proteins were compared to the corresponding CD80 and CD86-Ig proteins to determine their ability to stimulate cells expressing human CD28 using two murine T-cell hybridoma cell lines expressing human CD28, PCD28.1.s2.1 and DCL27CD28wt.s2. The PCD28.1.s2.1 cell line was described in Example 1, part 3. The DCL27CD28wt.s2 cell line was created by transfection of the DC27 cell line [F. Pages et al., Nature, 369:327-329 (1994); F. Pages et al., J. Biol. Chem., 271(16):9403-9409 (1996)] with the same CD28 expression vector used for the PCD28.1.s2.1 cells [D. Couez et al., Molecular Immunology, 31:47-57 (1994)]. These cell lines were examined for their ability to produce IL-2 in response to activation with CD80- and CD86-Ig in comparison with the corresponding Igαtp fusion proteins. 96-well plates were coated with or without a CD3 antibody together with the CD80 and CD86 fusion proteins. This was accomplished by first incubating the plates with a previously determined suboptimal concentration of hamster […] CD3 antibody (MAb 145-2C11, Boerhinger-Mannheim Biochemicals) for two hours at room temperature (RT) or with just buffer alone, washing the plates with PBS, adding goat anti-human Ig heavy chain (GAH-IgHc, Sigma Chemical Co.) for an additional two hours at RT, washing again and coating with different concentrations of the CD80 or CD86 fusion protein for 16-18 hours at 4° C., washing again, and finally blocking for 30 min. with 0.2% BSA-PBS. […] T cells were incubated in the wells for 24 hours at 37° C., and supernatants were collected and evaluated for IL-2 levels in a standard CTLL-2 bioassay [S. M. Gillis et al., J. Immunol., 120:2027 (1978)]. […] OD570 readings were converted into ng/ml of IL-2 based on a standard curve generated by treating cells with known concentrations of IL-2.
(§1) IL-2 promoter activity and IL-2 levels were measured similarly to that described in parts A and B above, except that proliferation of the reader CTLL-2 cells was measured by ^3H-thymidine incorporation.

[2] = system: PCD28.1.S2.1 cells (human CD28, lacZ fused to the IL-2 promoter); assay: FDG assay for IL-2 promoter activity (lacZ reporter); assay type: cell-based, murine; conditions: added directly to PC28.1.s2.1 cells in solution (FIG. 20A)
Description: A second assay for agonist activity measured induction of IL-2 promoter activity, rather than production of IL-2 protein. The PCD28.1.S2.1 cells described above also contain lacZ fused to the IL-2 promoter. Thus, the PCD28.1.S2.1 cell line provides a convenient system for measuring IL-2 promoter activity upon CD28-mediated T cell simulation. T cells were activated as described above for the CTLL-2 assay, spun down, resuspended in 50 μl of media+50 μl of PBS, lysed with 10 μl of 20% Triton X-100, and supplemented with 25 μl of 10 mM FDG (Molecular Probes), a fluorogenic substrate for b-galactosidase. Hydrolysis of FDG first yields fluorescein monogalactoside (FMG) and then the highly fluorescent product fluorescein. Cell lysates were incubated with FDG for 60 min., and the levels of fluorescence were measured by Fluoroscan (MTX Lab Systems, Inc).
as §1

[3] = target: T2, human CD28 on PCD28.1.s2.1 cells (Homo sapiens, UniProt P10747); assay: Flow cytometry binding to cells expressing cell-surface CD28; assay type: cell-based; conditions: on ice
T2 construct: expressed in transfected cells; host or cells: PCD28.1.s2.1 (PE30.2 murine T-cell hybridoma transfected with pHbactCd28neo)
Description: Non-adherent CD28 expressing cells (PCD28.1.s2.1) were used for this assay format. PCD28.1.S2.1 cells were created by transfection of PE30.2 cells [D. Emilie et al., Eur. J. Immunol., 19:1619-1624 (1989)] with a vector for expression of human CD28 [D. Couez et al., Molecular Immunology, 31:47-57 (1994)]. All incubations were carried out on ice. Unlabelled CD80- and CD86-Igαtp or CD80 and CD86-Ig were incubated with the cells in binding buffer consisting of PBS w/o Ca+2/Mg+2, 0.2% bovine serum albumin and 0.1 % sodium azide. After washing twice in binding buffer, bound fusion proteins were detected with a 1:2000 dilution of a goat anti-human polyclonal antibody labeled with FITC (Flourescein isothiocyanate, Southern Biotech). Following two additional washes in binding buffer, the cells were resuspended in binding buffer and analyzed on a FACSort analyzer (Becton-Dickinson) using a 488 nm laser.

interaction with CD28-Ig in solution by calorimetry (CD28-Ig): not detected | binding to CD28 positive cells [3]: no binding
B1: CD86-Ig: binding protein/Fc construct for CD86 with human IgG1 Fc (protein)
chain: APLKIQAYFNETADLPCQFANSQNQSLSELVVFWQDQENLVLNEVYLGKEKFDSVHSKYMGRTSFDSDSWTLRLHNLQIKDKGLYQCIIHHKKPTGMIRIHQMNSELSVLANFSQPEIVPISNITENVYINLTCSSIHGYPEPKKMSVLLRTKNSTIEYDGIMQKSQDNVTELYDVSISLSVSFPDVTSNMTIFCILETDKTRLLSSPFSIELEDPQPPPDHEPKSADKTHTCPPCP
modifications: left off: a dimerising Fc or GST
IL-2 production ([1]; added directly to PC28.1.s2.1 cells in solution, CTLL-2 3H-thymidine incorporation (FIG. 20B)): no stimulation | IL-2 response ([1]; cross-linked with GAH antibody, no CD3 antibody): did not give a response | IL-2 production ([1]; soluble protein, absence of CD3 crosslinking): no activity | IL-2 promoter activity [2]: no stimulation
